{
  "source": "patent US9623039B2",
  "about": "“Treatment and prevention of pathological conditions using iduna related techniques and compositions” (VALTED, LLC, priority 2010, dated 2017)",
  "molecules": {"B1": {"name": "Iduna: novel NMDA-induced cell survival protein, PAR-dependent E3 ligase; 359 amino acids (protein)", "chain": "MEMAGCGEIDHSINMLPTNKKANESCSNTAPSLTVPECAICLQTCVHPVSLPCKHVFCYLCVKGASWLGKRCALCRQEIPEDFLDKPTLLSPEELKAASRGNGEYAWYYEGRNGWWQYDERTSRELEDAFSKGKKNTEMLIAGFLYVADLENMVQYRRNEHGRRRKIKRDIIDIPKKGVAGLRLDCDTNTVNLARESSADGADSGSAQTGASVQLAVPSSTRPLTSVDGQLTSPVTPSPDAGISLEDSFAHLQLSGDSIAERSHRGEGEEDHESPSSGRVPDTSVEETESDASSDSEDAPVVVAQHSLTQQRPLVPNGNQTVADQSDRSGTDRSVAGGGTMSVNVRSRRPDGQCTVIEV"}},
  "key": {"[1]": {"system": "PARP-1", "assay": "PARP inhibition assay (32P-NAD incorporation into PAR polymer)", "assay_type": "biochemical", "details": "32P-NAD incorporation into radiolabeled PAR polymer", "description": "Because PARP-1 activation plays a prominent role in NMDA excitotoxicity we tested whether PARP-1 activity is directly affected by Iduna. PARP-1 activity was assessed by incorporation of biotinylated PAR onto histone proteins.\nPARP Inhibition Assay: To evaluate the ability of Iduna to act as a PARP inhibitor, [^32P]-labeled automodified PARP-1 was synthesized in presence of GST, GST-Iduna or PARG, respectively. To purify the [^32P]-labeled automodified PARP-1, the reaction mixture was incubated with anti-PAR antibody for 4 h at 4° C. and then sequentially incubated with protein-G slurry for 1 h at 4° C. Samples were washed two times with PBS and the amount of [^32P]-labeled automodified PARP-1 was measured by LS 6500 Liquid Scintillation Counting System."}, "[2]": {"system": "MCF7 cells", "assay": "MNNG cell death assay in stable MCF7 cell lines", "assay_type": "cell-based, human", "details": "MNNG 500 μM 15 min, 24 hr", "description": "Cell death assay. GFP, GFP-Iduna, GFP-Iduna C60A, GFP-Iduna YRAA, shRNA-Iduna and shRNA-Iduna/GFP-Iduna stably transfected cells were treated with 500 μM MNNG for 15 min, and replaced with fresh growth media. After 24 h, the cells were stained with […] Hoechst 33342 (Invitrogen) and […] propidium iodide (PI) (Invitrogen) and counted by automated computer-assisted program (Carl Zeiss). The percentage of cell death was determined as the ratio of live to dead cells compared with the percentage of cell death in control."}, "[3]": {"system": "primary cortical neurons", "assay": "NMDA excitotoxicity cell death in primary cortical neurons", "assay_type": "cell-based, mouse", "details": "NMDA 100 μM for 5 min, Iduna overexpression", "description": "Primary Neuronal Culture Preparation: Primary cortical cell cultures were prepared from gestational day 15 mouse embryos as previously described. Experiments were performed at DIV (day in vitro) 14. Under these conditions, neurons represent 90% of the cells in the culture. Mature neurons were washed with control salt solution (CSS) containing 120 mM NaCl, 5.4 mM KCl, 1.8 mM CaCl2, 25 mM Tris-HCl pH 7.4 and 15 mM D-glucose. To induce NMDA-mediated […], 50 μM NMDA and 10 μM glycine in CSS solution was applied to the cells for 5 min, then the cells were washed and re-supplemented with minimum essential medium containing 10% horse serum. […]\nCell Death Assessment: Following exposure of neuronal cultures to the various treatments neuronal survival was quantified and presented as percent of cell death. Percent cell death was determined as the ratio of live-to-dead cells compared with the percent cell death in control wells to account for cell death attributable to mechanical stimulation of the cultures. Quantification of neuronal survival was determined by staining treated cultures with 5 μM Hoechst 33342 and 2 μM propidium iodide (PI) (Invitrogen, Carlsbad, Calif.). […] The numbers of total and dead (PI positive) cells were counted by automated computer assisted software (Axiovision 4.6, Zeiss, Germany). […]"}, "[4]": {"system": "primary cortical neurons", "assay": "Mitochondrial membrane potential (TMRM live imaging)", "assay_type": "cell-based, mouse", "details": "TMRM fluorescence, NMDA 500 μM", "description": "Mitochondrial Membrane Potential (Δψm): TMRM was used to determine Δψm. Mouse neuronal cultures were loaded with TMRM (100 nM) for 20 min. Thereafter, live-cell imaging was captured using LSM 510 Live Confocal microscope (Carl Zeiss, Germany) for 20 minutes and fluorescence values for TMRM were calculated using LSM 510 confocal software (Carl Zeiss). Following 50-100 seconds base-line stabilization, NMDA (500 μM for 5 min) was directly perfused during image acquisition on the confocal microscopic stage using a peristaltic pump (Gilson). Live images were acquired at an interval of 20 s using a low laser power to avoid excessive bleaching. Due to spectral overlap with GFP, plasma membrane potential could not be determined."}, "[5]": {"system": "MCF7 cells", "assay": "Alkaline comet assay after γ-irradiation", "assay_type": "cell-based, human", "details": "γ-irradiation 2 Gy, 15 min", "description": "Comet assay. Single cell gel electrophoresis assay was performed by following the manufacturer's instructions. Briefly, established stable cell lines were irradiated (2 Gy) with a Gammacell irradiator and then further incubated for 15 min at 37° C. Cells were collected at 500×g at 4° C. and rinsed twice with ice cold PBS (Ca++ and Mg++ free). A total of 5×10^5 cells were counted and resuspended into PBS (Ca++ and Mg++ free) and then combined with LMAgarose (low melting agarose) at a ratio 1:10 (v/v). Each sample was spotted into CometSlide™ and lysed with buffer (supplied with CometAssay Kit, Trevigen) for 1 h at 4° C. After draining the excess lysis buffer, slides were immersed with alkaline unwinding solution (200 mM NaOH, pH>13, 1 mM EDTA) for 1 h at RT. To the single cell electrophoresis, each comet slide was placed in electrophoresis slide tray with 1 L of alkaline unwinding solution and applied to 21 Volts for 30 min for electrophoresis. After draining the excess electrophoresis buffer, slides were rinsed twice with dH2O and then fixed with 70% ethanol for 5 min. To facilitate single cell observation, slides were dried at 40° C. and stained with SYBR Green I (supplied with CometAssay Kit) for 5 min at 4° C. […] Fifty cells per slide were monitored and the DNA damage was calculated using comet tail length and head diameter parameters."}, "[6]": {"system": "cytochrome c", "assay": "Cytochrome c release after NMDA excitotoxicity", "assay_type": "cell-based, mouse", "details": "NMDA 500 μM for 5 min, 4 hrs", "description": "FIG. 53—Immunoblot showing release of CYT C. Mouse cortical neurons over-expressing GFP, GFP-Iduna or GFP-Iduna-YRAA were subjected to NMDA-excitotoxicity (500 μM for 5 min) on DIV 14. Following subcellular fractionation into mitochondrial and cytosolic (post-mitochondrial) fractions, CYT C release was monitored 4 hrs following NMDA stimulation. COX IV was used as a marker for mitochondria and GAPDH was used a marker for cytosol. Data were repeated three times with similar results.\nFIG. 54—Quantification of cytochrome c release from mitochondria following NMDA-toxicity. […] Values of optical density were quantified using Image J software and the data were normalized to the values of GAPDH in the cytosol."}},
  "data": [
    {"molecule": "B1", "values": [
      {"measurement": "PARP-1 catalytic activity", "setting": "[1]", "result": "fails to inhibit PARP-1 catalytic activity"},
      {"measurement": "MNNG-induced cell death", "setting": "[2]", "result": "dramatically rescues MCF7 cells from MNNG-induced cell death"},
      {"measurement": "cell death %", "setting": "[3]", "result": "23.0±1.8", "unit": "%"},
      {"measurement": "NMDA induced loss of Δψm", "setting": "[4]", "result": "prevents NMDA induced loss of Δψm"},
      {"measurement": "comet head diameter and tail length", "setting": "[5]", "result": "dramatically prevents the reduction in head diameter and increase in tail length"},
      {"measurement": "cytochrome c translocation from mitochondria to the cytoplasm", "setting": "[6]", "result": "reduction of cytochrome c translocation from mitochondria to the cytoplasm"}
    ]}
  ]
}
